Laboratory results taken from US20120207673A1 (GARVAN INSTITUTE OF MEDICAL RESEARCH, published 2012).

Molecular target: T1, protein A (UniProt P38507 37-477)
T1 construct: also called Protein A superantigen
Experiment: phage ELISA on coated protein A; signal after 80 C 10 min then 4 C 10 min as % of the untreated sample (heat/cool assay)

B1: HEL4 VH (other)
VH: QVQLLESGGGLVQPGGSLRLSCAASGFRISDEDMGWVRQAPGKGLEWVSSIYGPSGSTYYADSVKGRFTISRDNSKNTLYLQMNSLRAEDTAVYYCASALEPLSEPLGFWGQGTLVTVSS
- Retained binding to protein A: 88%
